From PMC12057666 (Science Advances, 2025)

How the values were obtained:
Conditions in all cases: both partners purified
[1] = target: T1, genotype 3a HEV-CA protein (3a Meng) (Hepatitis E virus genotype 3a, swine …, UniProt Q6J8F7, strain); experiment: SPR; Biacore 2000; purified IgG (10 μg/ml) captured on Protein G sensor chip; capsid proteins injected at 5 or 10 to 0.312 nM; HBS-EP (10 mM Hepes pH 7.2, 150 mM NaCl, 3 mM EDTA, 0.005% Tween 20); 22°C; Langmuir model, global analysis; apparent affinity
T1 construct: also called genotype 3 HEV-CA; source: Freestyle 293-F, transient transfection (PEI), purified from culture supernatant (Ni Sepharose Excel)

[2] = target: T2, genotype 1d HEV-CA protein (1d Morocco) (Hepatitis E virus genotype 1d, Morocco, …, UniProt Q9W7W9, strain); experiment: as above
T2 construct: hepatitis E virus capsid protein (ORF2), genotype 1d, strain Morocco; the 3-2712 HEV-CA construct of the same list is ORF2 126-601; Igk leader at the N terminus of the construct; also called genotype 1 HEV-CA; source: Freestyle 293-F, transient transfection (PEI), purified from culture supernatant (Ni Sepharose Excel)

[3] = target: T3, HEV-C1 capsid protein (Rocahepevirus, rat hepatitis E virus) (Rocahepevirus (rat hepatitis E virus …, UniProt E0XL23, strain)); experiment: as above
T3 construct: capsid protein (ORF2) of Rocahepevirus HEV-C1 (rat hepatitis E virus); Igk leader at the N terminus of the construct; also called HEV-C1 protein; Rocahepevirus CA; source: Freestyle 293-F, transient transfection (PEI), purified from culture supernatant (Ni Sepharose Excel)

[4] = target: T4, HEV-P, wild-type HEV-CA P domain protein, ORF2(455-601), genotype 3, 2712 strain (hepatitis E virus genotype 3, strain …, UniProt Q9YLQ9); experiment: ELISA; plates coated overnight with 125 ng per well of purified protein; serial dilutions of monoclonal antibodies in PBS, 2 hours; HRP anti-human IgG
T4 construct: source: Freestyle 293-F, transient transfection (PEI), purified from culture supernatant (Ni Sepharose Excel)
T4 sequence (Q9YLQ9 455-601): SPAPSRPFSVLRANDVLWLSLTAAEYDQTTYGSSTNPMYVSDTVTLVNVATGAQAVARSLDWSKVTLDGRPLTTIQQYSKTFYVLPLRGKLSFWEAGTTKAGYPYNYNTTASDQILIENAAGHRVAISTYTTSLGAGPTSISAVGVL

B1: Es5.127 IgG antibody (antibody, V domains shown)
VH: EVQLVQSGAEVKKPGESLKISCKGSGYRSGYSFSSYWIGWVRQRPGKGLEWMGIIQPGDSDTTYSPSFQGQVTISADKSINTAYLQWSSLKASDTAIYYCARVRGSLKVPAAVPFDPWGQGTLVTVSS
VL: QSVLTQPPSVSAAPGQKVTISCSGSSSNIGNNYVSWYQQFPGIAPKLLIYDNNKRPSGIPDRFSGSKSGTSATLGITGLQTGDEADYYCGTWDSSLSDVVFGGGTKLTVL
notes: source: Freestyle 293-F, transient cotransfection, purified (Protein G Sepharose 4 Fast Flow)
B1 was tested, and the Kd [1] was 0.41 nM, the binding result [2] was “binds” and the Kd [3] was 1.6 nM.

B2: Es1.327 IgG antibody (antibody, V domains shown)
VH: QVQLVQSGGEVKKPGASVRVSCQTSGYSFTHYSITWVRQAPGQGLEWMGWITTYNGKTSYAQKFQDRVTMTADTSSRTAYVELRSLRSDDTAVYYCVRVWTGYGTNRGDYWGQGTLVTVSS
VL: PSSLYASVGDRVTITCRASQSINTFLNWYQQKPGNAPKLLIHAASTLESGVPSRFSGSGSGTDFTLTISSLQPEDFATYYCQQSDNNFALTFGGGTKVEIR
notes: as for B1
B2: binds [4].

B3: Es4.431 IgG antibody (antibody, V domains shown)
VH: EVQLLESGGGLVQPGGSLRLSCTASGFTFDTHVMSWVRQGPGKGLEWVSSISAASGTYYAGSVKGRFTISRDNSKNTLFLHMNSLRVEDTGVYYCANVVHRCTTNTCFRGADNWGQGTLVTVSS
VL: PSSLSASVGDRVTITCRASQSVDTYLNWYQQKPGETPKLLIYAASTLQSGVPSRFSGSGSGTTFTLTISSLQPEDFATYYCQQSYTTLMYTFGQGTKLEIK
notes: as for B1
B3: binds [4].
